Reference: paper PMC3146532, “Multiple ATR-Chk1 Pathway Proteins Preferentially Associate with Checkpoint-Inducing DNA Substrates”

How the values were obtained:
[1] = biological target: T1, His-Chk1 (UniProt O14757 1-476); assay: pull-down; 10 mM Tris pH 7.4, 50 mM NaCl (oligo DNA) or 100 mM NaCl (plasmid; 200/300 mM for TopBP1 salt series), 10 ug/ml BSA, 10% glycerol, 0.01% NP-40, room temperature, 30 min; bead pull-down with immunoblot; conditions: protein: recombinant, tags: His
T1 sequence: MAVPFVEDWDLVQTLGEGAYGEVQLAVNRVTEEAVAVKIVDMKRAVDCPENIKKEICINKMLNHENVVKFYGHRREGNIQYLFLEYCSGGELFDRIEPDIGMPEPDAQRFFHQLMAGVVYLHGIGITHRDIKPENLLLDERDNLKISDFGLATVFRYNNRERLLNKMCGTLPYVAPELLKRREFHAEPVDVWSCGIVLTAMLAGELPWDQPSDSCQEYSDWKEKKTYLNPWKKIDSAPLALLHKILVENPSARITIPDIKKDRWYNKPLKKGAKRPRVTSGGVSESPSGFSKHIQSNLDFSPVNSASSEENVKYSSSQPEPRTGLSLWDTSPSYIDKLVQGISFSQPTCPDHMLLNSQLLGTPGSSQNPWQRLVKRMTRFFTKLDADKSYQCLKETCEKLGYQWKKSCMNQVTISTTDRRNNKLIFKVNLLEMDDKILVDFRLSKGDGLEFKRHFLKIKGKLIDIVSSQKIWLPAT

[2] = biological target: T2, FAAP24-His (UniProt Q9BTP7 1-215); assay: as above; conditions: protein: recombinant, tags: His (pET21b)
T2 sequence: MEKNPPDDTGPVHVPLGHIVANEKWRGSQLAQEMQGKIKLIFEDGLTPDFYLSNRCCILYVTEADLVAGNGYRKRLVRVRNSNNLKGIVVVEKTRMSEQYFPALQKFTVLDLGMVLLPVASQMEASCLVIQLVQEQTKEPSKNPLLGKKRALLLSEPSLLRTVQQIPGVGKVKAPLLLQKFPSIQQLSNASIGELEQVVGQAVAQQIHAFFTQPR

[3] = biological target: RPA (heterotrimer) (UniProt P27694;P15927;P35244 1-616;1-270;1-121); assay: pull-down; up to 10-fold more than dsDNA; 10 mM Tris pH 7.4, 50 mM NaCl (oligo DNA) or 100 mM NaCl (plasmid; 200/300 mM for TopBP1 salt series), 10 ug/ml BSA, 10% glycerol, 0.01% NP-40, room temperature, 30 min; bead pull-down with immunoblot; conditions: protein: recombinant, copies: 1;1;1
[4] = biological target: T3, FLAG-ATRIP (UniProt Q8WXE1 1-791); assay: pull-down; without RPA; 10 mM Tris pH 7.4, 50 mM NaCl (oligo DNA) or 100 mM NaCl (plasmid; 200/300 mM for TopBP1 salt series), 10 ug/ml BSA, 10% glycerol, 0.01% NP-40, room temperature, 30 min; bead pull-down with immunoblot; conditions: protein: recombinant; tags: FLAG; label: 5'-biotin on Oligo1; fork 1:2; 31 bp duplex, two 19 nt unpaired arms (3' of Oligo1, 5' of Oligo2)
T3 sequence: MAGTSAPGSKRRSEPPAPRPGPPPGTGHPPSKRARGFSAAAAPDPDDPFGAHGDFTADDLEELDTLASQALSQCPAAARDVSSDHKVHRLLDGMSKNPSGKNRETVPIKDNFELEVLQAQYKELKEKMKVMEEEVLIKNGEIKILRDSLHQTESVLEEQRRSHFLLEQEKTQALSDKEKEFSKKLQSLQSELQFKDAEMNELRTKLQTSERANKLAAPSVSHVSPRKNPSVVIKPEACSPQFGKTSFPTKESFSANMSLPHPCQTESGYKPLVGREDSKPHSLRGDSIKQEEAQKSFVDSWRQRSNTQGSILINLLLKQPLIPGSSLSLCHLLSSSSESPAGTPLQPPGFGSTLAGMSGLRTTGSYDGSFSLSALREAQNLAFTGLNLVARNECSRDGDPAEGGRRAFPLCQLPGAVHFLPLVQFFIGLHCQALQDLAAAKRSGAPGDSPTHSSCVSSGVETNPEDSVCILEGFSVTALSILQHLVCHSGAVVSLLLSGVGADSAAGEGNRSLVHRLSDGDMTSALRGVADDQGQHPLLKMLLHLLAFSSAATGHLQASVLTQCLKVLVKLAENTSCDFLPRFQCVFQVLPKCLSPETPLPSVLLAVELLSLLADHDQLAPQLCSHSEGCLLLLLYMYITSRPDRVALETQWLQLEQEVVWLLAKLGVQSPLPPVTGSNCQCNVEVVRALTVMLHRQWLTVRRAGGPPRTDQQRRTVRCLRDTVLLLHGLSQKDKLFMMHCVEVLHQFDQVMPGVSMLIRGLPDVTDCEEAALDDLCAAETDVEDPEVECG

[5] = biological target: T4, Tipin-His (UniProt Q9BVW5 1-301); assay: pull-down; >10-fold over ssDNA or dsDNA at highest protein; 10 mM Tris pH 7.4, 50 mM NaCl (oligo DNA) or 100 mM NaCl (plasmid; 200/300 mM for TopBP1 salt series), 10 ug/ml BSA, 10% glycerol, 0.01% NP-40, room temperature, 30 min; bead pull-down with immunoblot; conditions: protein: recombinant; tags: His; label: 5'-biotin on Oligo1; fork 1:2; 31 bp duplex, two 19 nt unpaired arms (3' of Oligo1, 5' of Oligo2)
T4 sequence: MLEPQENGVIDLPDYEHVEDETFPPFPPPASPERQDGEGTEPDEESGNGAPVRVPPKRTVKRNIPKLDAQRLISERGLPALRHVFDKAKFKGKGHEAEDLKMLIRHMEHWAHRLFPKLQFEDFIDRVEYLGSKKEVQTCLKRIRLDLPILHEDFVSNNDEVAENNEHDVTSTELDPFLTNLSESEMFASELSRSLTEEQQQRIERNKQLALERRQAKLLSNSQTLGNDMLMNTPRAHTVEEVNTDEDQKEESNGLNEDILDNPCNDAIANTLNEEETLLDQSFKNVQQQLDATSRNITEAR

[6] = biological target: FLAG-Timeless;Tipin-His (human?;human?, UniProt Q9UNS1;Q9BVW5 1-1208;1-301, |); assay: pull-down; 10 mM Tris pH 7.4, 50 mM NaCl (oligo DNA) or 100 mM NaCl (plasmid; 200/300 mM for TopBP1 salt series), 10 ug/ml BSA, 10% glycerol, 0.01% NP-40, room temperature, 30 min; bead pull-down with immunoblot; conditions: protein: recombinant;recombinant; tags: FLAG;His; copies: 1;1; label: 5'-biotin on Oligo1; fork 1:2; 31 bp duplex, two 19 nt unpaired arms (3' of Oligo1, 5' of Oligo2)
[7] = biological target: T5, 9-1-1 complex (FLAG-Rad9-Hus1-Rad1) (UniProt Q99638;O60921;O60671 1-391;1-280;1-282); assay: as above; conditions: protein: recombinant; tags: FLAG on Rad9; copies: 1;1;1; label: 5'-biotin on Oligo1; fork 1:2; 31 bp duplex, two 19 nt unpaired arms (3' of Oligo1, 5' of Oligo2)
T5 sequence 1: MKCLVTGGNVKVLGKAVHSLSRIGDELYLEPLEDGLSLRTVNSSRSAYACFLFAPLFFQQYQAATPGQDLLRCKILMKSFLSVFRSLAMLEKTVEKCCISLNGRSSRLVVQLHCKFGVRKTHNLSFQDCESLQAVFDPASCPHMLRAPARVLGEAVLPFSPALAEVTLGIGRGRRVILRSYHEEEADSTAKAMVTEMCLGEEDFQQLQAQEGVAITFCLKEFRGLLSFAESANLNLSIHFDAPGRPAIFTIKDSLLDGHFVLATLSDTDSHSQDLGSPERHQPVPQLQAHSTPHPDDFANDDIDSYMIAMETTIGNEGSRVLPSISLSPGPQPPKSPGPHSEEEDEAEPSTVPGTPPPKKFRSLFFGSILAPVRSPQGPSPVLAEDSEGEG
T5 sequence 2: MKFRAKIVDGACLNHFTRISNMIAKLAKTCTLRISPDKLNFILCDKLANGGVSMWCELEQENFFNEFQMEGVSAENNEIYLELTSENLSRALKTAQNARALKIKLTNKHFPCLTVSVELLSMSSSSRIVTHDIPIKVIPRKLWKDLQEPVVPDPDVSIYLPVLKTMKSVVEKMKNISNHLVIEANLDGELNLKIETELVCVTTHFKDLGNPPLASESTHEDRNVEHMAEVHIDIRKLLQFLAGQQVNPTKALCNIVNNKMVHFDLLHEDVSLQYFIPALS
T5 sequence 3: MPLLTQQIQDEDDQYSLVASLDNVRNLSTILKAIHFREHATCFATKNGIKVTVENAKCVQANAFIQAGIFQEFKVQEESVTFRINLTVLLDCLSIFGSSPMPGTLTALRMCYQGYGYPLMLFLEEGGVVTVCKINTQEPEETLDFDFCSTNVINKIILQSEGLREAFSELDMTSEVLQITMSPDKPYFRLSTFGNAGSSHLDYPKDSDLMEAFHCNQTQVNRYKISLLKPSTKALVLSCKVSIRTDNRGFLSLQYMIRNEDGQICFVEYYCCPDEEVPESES

[8] = biological target: FLAG-Timeless (UniProt Q9UNS1 1-1208); assay: as above; conditions: protein: recombinant; tags: FLAG; label: 5'-biotin on Oligo1; fork 1:2; 31 bp duplex, two 19 nt unpaired arms (3' of Oligo1, 5' of Oligo2)
[9] = biological target: MBP-XPA (UniProt P23025 1-273); assay: as above; conditions: protein: recombinant; tags: MBP; label: 5'-biotin on Oligo1; fork 1:2; 31 bp duplex, two 19 nt unpaired arms (3' of Oligo1, 5' of Oligo2)
[10] = biological target: FLAG-Claspin (UniProt Q9HAW4 1-1339); assay: as above; conditions: protein: recombinant; tags: FLAG; label: 5'-biotin on Oligo1; fork 1:2; 31 bp duplex, two 19 nt unpaired arms (3' of Oligo1, 5' of Oligo2)
[11] = label: 5'-biotin on Oligo1, fork 1:2, 31 bp duplex, two 19 nt unpaired arms (3' of Oligo1, 5' of Oligo2)

Measured: binding result

Sequence of RPA (heterotrimer) (P27694 whole entry, chain 1 of 3): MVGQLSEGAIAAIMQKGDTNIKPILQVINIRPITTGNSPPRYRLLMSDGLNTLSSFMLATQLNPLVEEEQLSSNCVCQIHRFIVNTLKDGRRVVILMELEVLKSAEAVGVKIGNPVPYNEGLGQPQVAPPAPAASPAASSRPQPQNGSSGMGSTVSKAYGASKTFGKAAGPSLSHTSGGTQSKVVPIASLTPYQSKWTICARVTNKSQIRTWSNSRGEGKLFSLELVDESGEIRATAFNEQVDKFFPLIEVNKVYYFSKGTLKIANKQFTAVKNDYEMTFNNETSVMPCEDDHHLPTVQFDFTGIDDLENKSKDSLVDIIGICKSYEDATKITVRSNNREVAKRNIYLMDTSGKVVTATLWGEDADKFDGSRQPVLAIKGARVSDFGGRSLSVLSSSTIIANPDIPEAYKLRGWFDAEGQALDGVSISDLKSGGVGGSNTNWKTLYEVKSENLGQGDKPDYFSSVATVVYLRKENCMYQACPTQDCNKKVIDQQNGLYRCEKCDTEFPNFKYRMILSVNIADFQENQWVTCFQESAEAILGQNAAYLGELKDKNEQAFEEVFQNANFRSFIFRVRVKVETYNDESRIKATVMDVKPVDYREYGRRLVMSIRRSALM
Sequence of RPA (heterotrimer) (P15927 whole entry, chain 2 of 3): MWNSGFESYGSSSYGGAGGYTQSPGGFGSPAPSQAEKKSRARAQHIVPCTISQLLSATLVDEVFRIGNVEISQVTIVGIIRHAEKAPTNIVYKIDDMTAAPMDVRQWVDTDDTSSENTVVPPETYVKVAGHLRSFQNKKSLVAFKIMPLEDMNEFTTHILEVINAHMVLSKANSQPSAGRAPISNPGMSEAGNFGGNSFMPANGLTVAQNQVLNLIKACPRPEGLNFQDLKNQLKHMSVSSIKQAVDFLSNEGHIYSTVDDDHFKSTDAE
Sequence of RPA (heterotrimer) (P35244 whole entry, chain 3 of 3): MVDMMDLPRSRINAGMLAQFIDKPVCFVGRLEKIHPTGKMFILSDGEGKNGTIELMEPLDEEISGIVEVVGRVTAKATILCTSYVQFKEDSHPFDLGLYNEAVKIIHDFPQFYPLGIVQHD
Sequence of FLAG-Claspin (Q9HAW4 whole entry): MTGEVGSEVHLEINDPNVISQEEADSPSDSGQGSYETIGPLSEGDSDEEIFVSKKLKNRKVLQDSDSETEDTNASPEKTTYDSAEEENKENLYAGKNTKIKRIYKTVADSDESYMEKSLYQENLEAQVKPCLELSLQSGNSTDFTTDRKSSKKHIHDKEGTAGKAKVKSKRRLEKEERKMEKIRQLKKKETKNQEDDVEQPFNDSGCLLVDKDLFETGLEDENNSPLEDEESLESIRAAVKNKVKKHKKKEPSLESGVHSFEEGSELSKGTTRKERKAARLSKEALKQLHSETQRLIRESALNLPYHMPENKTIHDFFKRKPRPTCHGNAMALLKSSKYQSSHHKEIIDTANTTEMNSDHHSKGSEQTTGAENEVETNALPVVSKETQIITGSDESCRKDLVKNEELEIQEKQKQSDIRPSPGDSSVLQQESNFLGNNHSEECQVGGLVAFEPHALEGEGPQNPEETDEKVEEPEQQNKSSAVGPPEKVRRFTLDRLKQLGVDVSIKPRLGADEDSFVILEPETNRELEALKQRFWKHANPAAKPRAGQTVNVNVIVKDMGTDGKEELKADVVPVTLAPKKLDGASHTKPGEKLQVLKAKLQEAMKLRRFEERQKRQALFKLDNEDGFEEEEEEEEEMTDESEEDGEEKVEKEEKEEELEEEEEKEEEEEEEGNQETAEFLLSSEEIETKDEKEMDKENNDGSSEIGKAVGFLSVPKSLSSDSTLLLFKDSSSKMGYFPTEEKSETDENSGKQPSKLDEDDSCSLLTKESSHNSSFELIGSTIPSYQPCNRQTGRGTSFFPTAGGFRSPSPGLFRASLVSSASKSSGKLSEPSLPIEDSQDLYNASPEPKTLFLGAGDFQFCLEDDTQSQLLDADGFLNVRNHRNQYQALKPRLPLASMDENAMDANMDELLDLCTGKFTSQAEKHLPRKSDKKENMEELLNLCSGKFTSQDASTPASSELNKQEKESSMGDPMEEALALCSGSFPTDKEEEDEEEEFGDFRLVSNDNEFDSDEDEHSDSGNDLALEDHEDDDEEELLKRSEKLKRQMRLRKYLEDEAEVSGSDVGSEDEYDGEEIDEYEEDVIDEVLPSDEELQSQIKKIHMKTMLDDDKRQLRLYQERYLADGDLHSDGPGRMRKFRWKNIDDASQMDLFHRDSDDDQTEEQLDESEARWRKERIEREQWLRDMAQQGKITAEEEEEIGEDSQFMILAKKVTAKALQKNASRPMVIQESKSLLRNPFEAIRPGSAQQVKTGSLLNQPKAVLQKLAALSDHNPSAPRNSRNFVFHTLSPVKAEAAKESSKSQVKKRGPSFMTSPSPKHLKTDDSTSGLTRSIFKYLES
Sequence of MBP-XPA (P23025 whole entry): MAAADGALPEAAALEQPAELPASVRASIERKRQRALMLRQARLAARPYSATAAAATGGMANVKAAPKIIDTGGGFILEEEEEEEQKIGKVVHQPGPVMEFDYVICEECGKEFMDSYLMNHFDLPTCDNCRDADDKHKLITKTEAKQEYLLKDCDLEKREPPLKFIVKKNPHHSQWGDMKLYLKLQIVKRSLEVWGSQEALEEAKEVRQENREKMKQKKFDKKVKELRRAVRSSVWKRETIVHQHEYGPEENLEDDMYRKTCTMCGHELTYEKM
Sequence of FLAG-Timeless;Tipin-His (Q9UNS1 whole entry, one chain of several): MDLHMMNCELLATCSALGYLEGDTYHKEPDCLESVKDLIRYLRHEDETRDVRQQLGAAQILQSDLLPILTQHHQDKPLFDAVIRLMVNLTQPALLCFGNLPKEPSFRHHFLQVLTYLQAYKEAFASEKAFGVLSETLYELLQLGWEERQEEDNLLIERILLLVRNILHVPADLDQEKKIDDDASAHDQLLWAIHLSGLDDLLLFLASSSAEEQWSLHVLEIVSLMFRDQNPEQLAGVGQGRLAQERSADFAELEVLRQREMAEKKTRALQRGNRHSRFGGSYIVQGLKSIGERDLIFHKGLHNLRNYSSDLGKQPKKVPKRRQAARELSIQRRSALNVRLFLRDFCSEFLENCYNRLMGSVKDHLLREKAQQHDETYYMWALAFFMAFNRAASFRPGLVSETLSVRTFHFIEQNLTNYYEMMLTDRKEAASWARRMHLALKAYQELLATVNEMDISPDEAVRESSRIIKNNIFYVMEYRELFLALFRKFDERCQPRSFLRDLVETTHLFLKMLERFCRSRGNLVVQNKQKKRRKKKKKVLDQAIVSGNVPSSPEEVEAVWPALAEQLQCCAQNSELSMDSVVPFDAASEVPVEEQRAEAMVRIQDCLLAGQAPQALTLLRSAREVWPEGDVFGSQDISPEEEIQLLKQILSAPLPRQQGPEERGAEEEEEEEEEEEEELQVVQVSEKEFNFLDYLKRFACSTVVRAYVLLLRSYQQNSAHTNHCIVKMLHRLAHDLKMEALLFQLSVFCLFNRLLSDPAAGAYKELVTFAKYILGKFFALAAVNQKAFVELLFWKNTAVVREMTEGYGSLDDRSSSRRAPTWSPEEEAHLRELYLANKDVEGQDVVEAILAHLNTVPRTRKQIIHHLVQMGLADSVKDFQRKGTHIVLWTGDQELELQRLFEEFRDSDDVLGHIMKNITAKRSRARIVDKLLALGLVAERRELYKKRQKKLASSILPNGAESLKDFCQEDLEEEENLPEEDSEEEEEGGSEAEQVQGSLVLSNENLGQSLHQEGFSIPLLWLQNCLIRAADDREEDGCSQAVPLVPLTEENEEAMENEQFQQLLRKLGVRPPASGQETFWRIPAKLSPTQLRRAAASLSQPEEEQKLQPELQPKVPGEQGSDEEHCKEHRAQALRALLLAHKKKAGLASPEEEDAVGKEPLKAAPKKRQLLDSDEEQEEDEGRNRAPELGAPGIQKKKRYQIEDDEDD
Sequence of FLAG-Timeless (Q9UNS1 whole entry): as the sequence (Q9UNS1 whole entry, one chain of several) above

B1: ssDNA 50-mer (Oligo1) (ssDNA)
DNA: GACGCTGCCGAATTCTGGCTTGCTAGGACATCTTTGCCCACGTTGACCCG
binds: [1]; label: 5'-biotin | [2]; label: 5'-biotin | [3]; label: 5'-biotin

B2: fork DNA (Oligo1/Oligo2) (mixed)
DNA 1: B1 DNA
DNA 2: GCGATAGTCTCTAGACAGCATGTCCTAGCAAGCCAGAATTCGGCAGCGTC
binds: [4] | [5] | [6] | [7] | [8] | [9] | [1]; [11] | [2]; [11] | [10] | [3]; [11]
